Values belong to the sequence of their own block, whether it stands above or below them.
Assays:
[1] = target: HLA-A*02:01; test: IEDB peptide-MHC binding, purified MHC/direct/fluorescence; filed as Kd, often an IC50 or EC50 that approximates it; ≥ and ≤ were set here for values at or beyond the usual limits of such assays
[2] = target: HLA-A*02:03; test: as above
[3] = target: HLA-A*02:12; test: as above
[4] = target: HLA-A*02:16; test: as above
[5] = target: HLA-A*02:19; test: as above
[6] = target: HLA-A*03:01; test: as above
[7] = target: HLA-A*26:01; test: as above
[8] = target: HLA-B*15:01; test: as above
[9] = target: HLA-B*18:01; test: as above
[10] = target: HLA-B*27:03; test: as above
[11] = target: HLA-B*46:01; test: as above
[12] = target: HLA-B*51:01; test: as above
[13] = target: HLA-B*57:01; test: as above
[14] = target: HLA-C*05:01; test: as above; conditions: source organism: human gammaherpesvirus 4
[15] = target: HLA-A*02:01; test: IEDB peptide-MHC binding, purified MHC/competitive/fluorescence; filed as Kd, often an IC50 or EC50 that approximates it; ≥ and ≤ were set here for values at or beyond the usual limits of such assays; conditions: source organism: human gammaherpesvirus 4
[16] = target: HLA-A*69:01; test: as above; conditions: source organism: human gammaherpesvirus 4
[17] = target: HLA-B*15:42; test: as above; conditions: source organism: human gammaherpesvirus 4
[18] = target: HLA-B*45:06; test: as above; conditions: source organism: human gammaherpesvirus 4
[19] = target: HLA-B*83:01; test: as above; conditions: source organism: human gammaherpesvirus 4
[20] = target: HLA-C*04:01; test: as above; conditions: source organism: human gammaherpesvirus 4
[21] = target: HLA-A*02:11; test: IEDB peptide-MHC binding, purified MHC/direct/fluorescence; filed as Kd, often an IC50 or EC50 that approximates it; ≥ and ≤ were set here for values at or beyond the usual limits of such assays
[22] = target: HLA-A*24:03; test: as above
[23] = target: HLA-A*68:02; test: as above
[24] = target: HLA-A*69:01; test: as above
[25] = target: HLA-B*15:17; test: as above
[26] = target: HLA-B*39:01; test: as above
[27] = target: HLA-B*48:01; test: IEDB peptide-MHC binding, purified MHC/competitive/fluorescence; filed as Kd, often an IC50 or EC50 that approximates it; ≥ and ≤ were set here for values at or beyond the usual limits of such assays
[28] = target: HLA-A*01:01; test: IEDB peptide-MHC binding, purified MHC/direct/fluorescence; filed as Kd, often an IC50 or EC50 that approximates it; ≥ and ≤ were set here for values at or beyond the usual limits of such assays
[29] = target: HLA-B*07:02; test: as above
[30] = target: HLA-B*08:03; test: as above; conditions: source organism: Influenza A virus(A/swine/Shandong/fZC/2003(H9N2))
[31] = target: HLA-B*27:05; test: as above
[32] = target: HLA-B*40:01; test: as above
[33] = target: HLA-B*58:01; test: as above
[34] = target: HLA-A*30:01; test: IEDB peptide-MHC binding, purified MHC/competitive/fluorescence; filed as Kd, often an IC50 or EC50 that approximates it; ≥ and ≤ were set here for values at or beyond the usual limits of such assays; conditions: source organism: Influenza A virus (A/X-31(H3N2))
[35] = target: HLA-A*29:02; test: IEDB peptide-MHC binding, purified MHC/direct/fluorescence; filed as Kd, often an IC50 or EC50 that approximates it; ≥ and ≤ were set here for values at or beyond the usual limits of such assays; conditions: source organism: Bacillus anthracis str. 'Ames Ancestor'
[36] = target: HLA-A*11:01; test: as above; conditions: source organism: Mycobacterium tuberculosis
[37] = target: HLA-A*31:01; test: as above; conditions: source organism: Mycobacterium tuberculosis
[38] = target: HLA-B*08:01; test: as above; conditions: source organism: Mycobacterium tuberculosis str. Haarlem
[39] = target: HLA-B*15:09; test: as above; conditions: source organism: Mycobacterium tuberculosis str. Haarlem
[40] = target: HLA-B*44:02; test: as above; conditions: source organism: Mycobacterium tuberculosis
[41] = target: HLA-B*48:01; test: as above; conditions: source organism: Mycobacterium tuberculosis
[42] = target: HLA-A*02:03; test: IEDB peptide-MHC binding, purified MHC/competitive/fluorescence; filed as Kd, often an IC50 or EC50 that approximates it; ≥ and ≤ were set here for values at or beyond the usual limits of such assays; conditions: source organism: Mycobacterium tuberculosis variant bovis BCG str. Pasteur 1173P2
[43] = source organism: Vibrio vulnificus YJ016
[44] = source organism: Burkholderia mallei ATCC 23344
[45] = source organism: Encephalitozoon cuniculi GB-M1
[46] = source organism: Influenza A virus (A/duck/Vietnam/15/2003(H5N1))
[47] = source organism: Bacillus anthracis str. 'Ames Ancestor'
[48] = source organism: Mycobacterium tuberculosis
[49] = source organism: Mycobacterium tuberculosis str. Haarlem

Sequence: FPLWNTEKI
Kd [1, 43]: ≥ 20 µM | Kd [2, 43]: ≥ 20 µM | Kd [3, 43]: ≥ 20 µM | Kd [4, 43]: ≥ 20 µM | Kd [5, 43]: ≥ 20 µM | Kd [6, 43]: ≥ 20 µM | Kd [7, 43]: ≥ 20 µM | Kd [8, 43]: ≥ 20 µM | Kd [9, 43]: ≥ 20 µM | Kd [10, 43]: ≥ 20 µM | Kd [11, 43]: ≥ 20 µM | Kd [12, 43]: 0.071 µM | Kd [13, 43]: ≥ 20 µM

Sequence: FTASVSTVV
Kd [14]: 3.95 µM | Kd [15]: 0.0027 µM | Kd [16]: ≤ 0.0001 µM | Kd [17]: ≥ 5 µM | Kd [18]: ≥ 5 µM | Kd [19]: ≥ 5 µM | Kd [20]: ≥ 5 µM

Sequence: LVTGAGSGF
Kd [1, 44]: ≥ 20 µM | Kd [2, 44]: ≥ 20 µM | Kd [21, 44]: ≥ 20 µM | Kd [3, 44]: ≥ 20 µM | Kd [4, 44]: ≥ 20 µM | Kd [5, 44]: ≥ 20 µM | Kd [6, 44]: ≥ 20 µM | Kd [22, 44]: ≥ 20 µM | Kd [7, 44]: ≥ 20 µM | Kd [23, 44]: ≥ 20 µM | Kd [24, 44]: ≥ 20 µM | Kd [25, 44]: 0.148 µM | Kd [9, 44]: ≥ 20 µM | Kd [10, 44]: ≥ 20 µM | Kd [26, 44]: ≥ 20 µM | Kd [11, 44]: ≥ 20 µM | Kd [13, 44]: ≥ 20 µM

Kd [2, 45]: ≥ 20 µM | Kd [3, 45]: ≥ 20 µM | Kd [4, 45]: ≥ 20 µM | Kd [5, 45]: ≥ 20 µM | Kd [6, 45]: ≥ 20 µM | Kd [24, 45]: ≥ 20 µM | Kd [25, 45]: 0.18 µM | Kd [10, 45]: ≥ 20 µM | Kd [26, 45]: ≥ 20 µM | Kd [11, 45]: ≥ 20 µM
Sequence: RNMSRIFPY

Sequence: RQVWWKALL
Kd ([27]; source organism: Vibrio cholerae MAK 757): 0.0226 µM

Sequence: SHEGEGIPL
Kd [28, 46]: ≥ 20 µM | Kd [1, 46]: ≥ 20 µM | Kd [6, 46]: ≥ 20 µM | Kd ([7]; source organism: Influenza A virus(A/swine/Shandong/fZC/2003(H9N2))): ≥ 20 µM | Kd [23, 46]: ≥ 20 µM | Kd [24, 46]: ≥ 20 µM | Kd [29, 46]: ≥ 20 µM | Kd [30]: ≥ 20 µM | Kd [8, 46]: ≥ 20 µM | Kd [25, 46]: ≥ 20 µM | Kd [9, 46]: ≥ 20 µM | Kd [31, 46]: ≥ 20 µM | Kd [26, 46]: 0.0995 µM | Kd [32, 46]: ≥ 20 µM | Kd [11, 46]: ≥ 20 µM | Kd [13, 46]: ≥ 20 µM | Kd [33, 46]: ≥ 20 µM | Kd [34]: ≥ 20 µM | Kd ([27]; source organism: Influenza A virus (A/X-31(H3N2))): ≥ 20 µM

Sequence: TKAGMAQYL
Kd [1, 47]: ≥ 20 µM | Kd [2, 47]: ≥ 20 µM | Kd [21, 47]: ≥ 20 µM | Kd [3, 47]: ≥ 20 µM | Kd [4, 47]: ≥ 20 µM | Kd [5, 47]: ≥ 20 µM | Kd [6, 47]: ≥ 20 µM | Kd [22, 47]: ≥ 20 µM | Kd [7, 47]: ≥ 20 µM | Kd [35]: ≥ 20 µM | Kd [24, 47]: ≥ 20 µM | Kd [8, 47]: ≥ 20 µM | Kd [25, 47]: ≥ 20 µM | Kd [9, 47]: ≥ 20 µM | Kd [10, 47]: ≥ 20 µM | Kd [11, 47]: ≥ 20 µM | Kd [12, 47]: ≥ 20 µM | Kd [13, 47]: ≥ 20 µM

Sequence: WEITYLGTT
Kd [28, 48]: ≥ 20 µM | Kd [1, 48]: ≥ 20 µM | Kd [6, 48]: ≥ 20 µM | Kd [36]: ≥ 20 µM | Kd [7, 49]: ≥ 20 µM | Kd [37]: ≥ 20 µM | Kd [23, 48]: ≥ 20 µM | Kd [24, 48]: ≥ 20 µM | Kd [29, 48]: ≥ 20 µM | Kd [38]: ≥ 20 µM | Kd [8, 48]: ≥ 10 µM | Kd [39]: ≥ 20 µM | Kd [25, 48]: ≥ 20 µM | Kd [9, 48]: 0.297 µM | Kd [31, 48]: ≥ 20 µM | Kd [26, 49]: ≥ 20 µM | Kd [32, 48]: 3.26 µM | Kd [40]: ≥ 20 µM | Kd [41]: ≥ 20 µM | Kd [13, 48]: ≥ 20 µM | Kd [33, 48]: ≥ 20 µM | Kd [42]: ≥ 20 µM

— the Immune Epitope Database (IEDB)
